For 2 proteins, Km and kcat results are on record in publication PMC4658230.

What all share (assay): cells, lysate or membranes named
Substrate in data set [1]: C=Cc1ccccc1
As to conditions: pH 7.4; 37.0 °C.

Substrate in data set [2]: Nc1ccccc1
Particulars: 1 mM NADPH, 37°C, pH 7.4.

Substrate in data set [3]: O=[N+]([O-])c1ccc(O)cc1
Particulars: 1 mM NADPH, 37°C, pH 7.4.

Setting [4] is: other: rat liver mitochondria 2 mg/mL.
[5] abbreviates: other: rat liver microsomes 0.5 mg/mL.

B1: mtCYP2E1 (Rattus norvegicus) (protein)
chain: AVLGITIALLVWVATLLVISIWKQIYNSWNLPPGPFPLPILGNIFQLDLKDIPKSFTKLAKRFGPVFTLHLGSRRIVVLHGYKAVKEVLLNHKNEFSGRGDIPVFQEYKNKGIIFNNGPTWKDVRRFSLSILRDWGMGKQGNEARIQREAQFLVEELKKTKGQPFDPTFLIGCAPCNVIADILFNKRFDYNDKKCLRLMSLFNENFYLLSTPWIQLYNNFADYLRYLPGSHRKIMKNVSEIKQYTLEKAKEHLQSLDINCARDVTDCLLIEMEKEKHSQEPMYTMENVSVTLADLFFAGTETTSTTLRYGLLILMKYPEIEEKLHEEIDRVIGPSRVPAVRDRLDMPYMDAVVHEIQRFINLVPSNLPHEATRDTVFQGYVIPKGTVVIPTLDSLLYDSHEFPDPEKFKPEHFLNENGKFKYSDYFKAFSAGKRVCVGEGLARMELFLLLSAILQHFNLKSLVDPKDIDLSPVTVGFGSIPPQFKLCVIPRS
Regarding B1, the results for the Km in data set [1], in data set [2] (setting [4]) and in data set [3] (setting [4]) were 45 (36 to 56) μM, 10 (7.5 to 12) μM and 28 (24 to 33) μM, respectively. Also, the values for the kcat in data set [2] (setting [4]) and in data set [3] (setting [4]) were 52 (49 to 54) pmol/min/pmol CYP2E1 and 110 (100 to 110) pmol/min/pmol CYP2E1, respectively.

B2: erCYP2E1 (Rattus norvegicus) (protein)
chain: MAVLGITIALLVWVATLLVISIWKQIYNSWNLPPGPFPLPILGNIFQLDLKDIPKSFTKLAKRFGPVFTLHLGSRRIVVLHGYKAVKEVLLNHKNEFSGRGDIPVFQEYKNKGIIFNNGPTWKDVRRFSLSILRDWGMGKQGNEARIQREAQFLVEELKKTKGQPFDPTFLIGCAPCNVIADILFNKRFDYNDKKCLRLMSLFNENFYLLSTPWIQLYNNFADYLRYLPGSHRKIMKNVSEIKQYTLEKAKEHLQSLDINCARDVTDCLLIEMEKEKHSQEPMYTMENVSVTLADLFFAGTETTSTTLRYGLLILMKYPEIEEKLHEEIDRVIGPSRVPAVRDRLDMPYMDAVVHEIQRFINLVPSNLPHEATRDTVFQGYVIPKGTVVIPTLDSLLYDSHEFPDPEKFKPEHFLNENGKFKYSDYFKAFSAGKRVCVGEGLARMELFLLLSAILQHFNLKSLVDPKDIDLSPVTVGFGSIPPQFKLCVIPRS
For B2, the Km in data set [1] is 100 (31 to 2600) μM; in data set [2] (setting [5]) it was 2.1 (0.010 to 5.2) μM; in data set [3] (setting [5]), 28 (24 to 34) μM. Besides, the kcat in data set [3] (setting [5]) was 940 (880 to 1000) pmol/min/pmol CYP2E1.
